From patent US20100221748A1

Molecular target: T1, RB-C fusion protein (residues 701-928) (UniProt P06400)
T1 sequence: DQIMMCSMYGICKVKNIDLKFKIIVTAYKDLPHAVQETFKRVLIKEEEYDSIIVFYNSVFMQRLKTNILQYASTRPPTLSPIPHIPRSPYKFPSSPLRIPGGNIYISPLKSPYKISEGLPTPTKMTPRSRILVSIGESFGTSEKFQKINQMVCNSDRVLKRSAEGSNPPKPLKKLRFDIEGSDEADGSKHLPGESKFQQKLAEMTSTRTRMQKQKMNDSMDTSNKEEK

AMPK holoenzyme (α/β/γ heterotrimers)
nonradioactive in vitro kinase assay; phosphorylation monitored by immunoblot using phospho-Rb800/804 antibody: AMPK directly phosphorylated Rb at Ser804 and that this modification could be inhibited by the AMPK inhibitor, compound C
